The values below come from PMC10888690.

This test concerns the target SmCAMTA2, split-YFP fusion for BiFC (Solanum melongena (eggplant)).

In the case of “SmERF1, construct for BiFC (natural protein)”, the LUC/REN ratio of the SmCBF2 promoter-LUC reporter in N. benthamiana leaves when SmERF1-62-SK and SmCAMTA2-62-SK were co-present turned out to be 2 fold.
